# Residue numbers refer to the chain shown, from its start. Numbers in names are those of the source. Where no end group is shown, it is not given here.
# B1: PC-1 (bispecific antibody)
# light: GGVDFCKIYSWPVCHQGGGGSGGLSGRSDAGSPLGLAGSGGSDIQLTQSPSSLSASVGDRVSITCKASQDVSIAVAWYQQKPGKAPKLLIYSASYRYTGVPDRFSGSGSGTDFTLTISSLQPEDFAVYYCQQHYITPLTFGAGTKVEIKRTVAAPSVFIFPPSDEQLKSGTASVVCLLNNFYPREAKVQWKVDNALQSGNSQESVTEQDSKDSTYSLSSTLTLSKADYEKHKVYACEVTHQGLSSPVTKSFNRGEC
# heavy: not shown
# notes: anti-TROP2 wt
# B2: PC-5 + MTSP1 (bispecific antibody)
# light: DIQLTQSPSSLSASVGDRVSITCKASQDVSIAVAWYQQKPGKAPKLLIYSASYRYTGVPDRFSGSGSGTDFTLTISSLQPEDFAVYYCQQHYITPLTFGAGTKVEIKRTVAAPSVFIFPPSDEQLKSGTASVVCLLNNFYPREAKVQWKVDNALQSGNSQESVTEQDSKDSTYSLSSTLTLSKADYEKHKVYACEVTHQGLSSPVTKSFNRGEC
# chain: not shown
# modifications: Protease-treated product: both masks and the anti-albumin domain are cut off in the cleavable linkers.
# notes: not shown: The few linker residues left at the N-terminus of each chain after the MTSP1 cut
# B3: PC-1 + MTSP1 (bispecific antibody)
# light: B2 light
# chain: not shown
# modifications: Protease-treated product: both masks and the anti-albumin domain are cut off in the cleavable linkers.
# notes: as for B2
# B4: TCE-39 (anti-CD3 scFv P41S, A49G, N87S, L150F, T151S, G163R, P175A, K181T, T200V, A202D, L208I, G211N, L217I, S218T, V220A, P222A, E223D, A226S, E227D; … (bispecific antibody)
# light: B2 light
# heavy: EVQLVESGGGLVQPGGSLKLSCAASGFTFNKYAMNWVRQASGKGLEWVGRIRSKYNNYATYYADSVKDRFTISRDDSKNTAYLQMNSLKTEDTAVYYCVRHGNFGNSYISYWAYWGQGTLVTVSSGGGGSGGGGSGGGGSQTVVTQEPSFSVSPGGTVTLTCRSSTGAVTSGNYANWVQQTPGQAPRGLIGGTKFLAPGVPDRFSGSILGNKAALTITGAQADDESDYYCVLWYSNRWVFGGGTKLTVLGGGGSQVQLQQSGSELKKPGASVKVSCKASGYTFTNYGMNWVKQAPGQGLKWMGWINTYTGEPTYTDDFKGRFAFSLDTSVSTAYLQISSLKADDTAVYFCARGGFGSSYWYADVWGQGSLVTVSSASTKGPSVFPLAPSSKSTSGGTAALGCLVKDYFPEPVTVSWNSGALTSGVHTFPAVLQSSGLYSLSSVVTVPSSSLGTQTYICNVNHKPSNTKVDKKVEPKSC
# notes: scFv on the Fab heavy chain
# B5: PC-31 (anti-TROP2 D109A; anti-CD3 F104A), masked polypeptide complex (bispecific antibody)
# light: B1 light with K7G, I8L, S10H, V13I, H15Y
# heavy: not shown
# notes: LC: TROP2 mask peptide + cleavable linker + anti-TROP2 LC; HC: anti-albumin single domain + CD3 mask peptide + cleavable linker + anti-CD3 scFv + anti-TROP2 Fab HC
# Legend:
# [1] = target: T1, Human TROP2 ECD (31-274 AA), biotinylated (human, UniProt P09758 31-274, biotinylated (site not stated)); assay: ELISA on immobilized TROP2
# T1 construct: also called tumor-associated calcium signal transducer 2; Human TROP2-biotin
# T1 sequence: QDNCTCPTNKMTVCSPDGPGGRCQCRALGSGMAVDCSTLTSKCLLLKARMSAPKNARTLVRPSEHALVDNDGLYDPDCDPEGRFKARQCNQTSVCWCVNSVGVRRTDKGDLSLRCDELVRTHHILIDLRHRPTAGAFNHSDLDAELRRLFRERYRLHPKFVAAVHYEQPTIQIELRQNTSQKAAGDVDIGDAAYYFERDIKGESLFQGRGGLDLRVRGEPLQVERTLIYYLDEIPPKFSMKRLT
# [2] = target: T1, Human TROP2 ECD (31-274 AA), …; assay: ELISA on immobilized TROP2; binder pre-treated with MTSP1
# [3] = target: T1, Human TROP2 ECD (31-274 AA), …; assay: as above; remark: listed apart in the source
# Peptide-77 = target: T2, Peptide-77 (cysteine pairing not given here; also: biotinylated, site not given here); assay: ELISA, TCE on captured biotin-peptide
# T2 construct: mask peptide for the CD3 scFv
# T2 peptide: YLCGPDTDETLACY
# Peptide-70 = target: T3, Peptide-70 (cysteine pairing not given here; also: biotinylated, site not given here); assay: ELISA, TCE on captured biotin-peptide
# T3 construct: mask peptide for the CD3 scFv
# T3 peptide: YLCGPDGDETLACY
# Peptide-76 = target: T4, Peptide-76 (cysteine pairing not given here; also: biotinylated, site not given here); assay: ELISA, TCE on captured biotin-peptide
# T4 construct: mask peptide for the CD3 scFv
# T4 peptide: YLCGPDADETLACY
# Peptide-73 = target: T5, Peptide-73 (cysteine pairing not given here; also: biotinylated, site not given here); assay: ELISA, TCE on captured biotin-peptide
# T5 construct: mask peptide for the CD3 scFv
# T5 peptide: VYCGPEFDESVGCA
# [4] = target: T6, Human TROP2 ECD (31-274 AA), biotinylated (human, UniProt P09758 31-274, biotinylated (site not stated)); assay: ELISA, captured biotin-TROP2
# T6 construct: also called TROP2-biotin; Trop2-biotin
# T6 sequence: T1 sequence
# [5] = target: T6, Human TROP2 ECD (31-274 AA), …; assay: ELISA, captured biotin-TROP2; remark: listed apart in the source
# [6] = target: T7, CD3 (biotinylated CD3 antigen) (human, UniProt P07766 23-126, limits assumed, biotinylated (site not stated)); assay: ELISA, captured biotin-CD3
# T7 construct: also called CD3ε; human CD3
# T7 sequence (P07766 23-126 limits assumed): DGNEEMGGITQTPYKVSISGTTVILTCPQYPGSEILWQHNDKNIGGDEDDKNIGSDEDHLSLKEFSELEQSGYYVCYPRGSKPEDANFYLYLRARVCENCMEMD
binder,measurement,setting,value
B1,EC50,[1],49.4 nM
B2,EC50,[2],0.25 nM
B3,EC50,[3],0.48 nM
B4,EC50,Peptide-77,18.8 nM
same,EC50,Peptide-70,0.33 nM
same,EC50,Peptide-76,1.39 nM
same,EC50,Peptide-73,0.41 nM
same,EC50,[4],5.92 nM
B5,EC50,[5],694 nM
same,EC50,[6],1080 nM

# From patent publication US20230357429A1 (JANUX THERAPEUTICS, published 2023)
